Laboratory results published in patent US20210061911A1.

How the values were obtained:
[1] = biological target: Cynomolgus CD3ε/δ (cynomolgus monkey) (UniProt Q95LI5); test: kinetic binding analysis, method not given
[2] = biological target: Human CD3ε/δ (human) (UniProt P07766); test: kinetic binding analysis, method not given
Human CD3ε/δ (human), sequence (P07766 23-126, stated change not applied, chain 1 of 2): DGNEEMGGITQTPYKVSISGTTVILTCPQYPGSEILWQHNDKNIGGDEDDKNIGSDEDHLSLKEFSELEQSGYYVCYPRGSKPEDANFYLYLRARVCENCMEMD
Human CD3ε/δ (human), sequence (P04234 22-105, stated change not applied, chain 2 of 2, further chain): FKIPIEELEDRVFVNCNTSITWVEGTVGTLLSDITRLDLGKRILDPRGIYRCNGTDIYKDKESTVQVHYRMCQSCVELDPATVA

Cynomolgus CD3ε/δ (cynomolgus monkey), sequence (Q95LI5 22-117, stated change not applied, chain 1 of 2): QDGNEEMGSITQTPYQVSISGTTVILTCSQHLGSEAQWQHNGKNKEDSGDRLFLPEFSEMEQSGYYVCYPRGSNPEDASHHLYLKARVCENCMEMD
Cynomolgus CD3ε/δ (cynomolgus monkey), sequence (Q95LI8 22-105, stated change not applied, chain 2 of 2, further chain): as the sequence (P04234 22-105, stated change not applied, chain 2 of 2, further chain) above, with I5V, N15K, I20V, S32T, D33N, I34N, T64A, S74N, V83L counted along it

Kd [1]: 9.2 nM
koff [1]: 0.005 s⁻¹
kon [1]: 550000 M⁻¹ s⁻¹
Kd [2]: 9 nM
koff [2]: 0.005 s⁻¹
kon [2]: 570000 M⁻¹ s⁻¹
B1: DART-A, sequence-optimized CD123×CD3 bi-specific monovalent diabody (bispecific antibody)
chain 1: QAVVTQEPSLTVSPGGTVTLTCRSSTGAVTTSNYANWVQQKPGQAPRGLIGGTNKRAPWTPARFSGSLLGGKAALTITGAQAEDEADYYCALWYSNLWVFGGGTKLTVLGGGGSGGGGEVQLVQSGAELKKPGASVKVSCKASGYTFTDYYMKWVRQAPGQGLEWIGDIIPSNGATFYNQKFKGRVTITVDKSTSTAYMELSSLRSEDTAVYYCARSHLLRASWFAYWGQGTLVTVSSGGCGGGEVAALEKEVAALEKEVAALEKEVAALEK
chain 2: DFVMTQSPDSLAVSLGERVTMSCKSSQSLLNSGNQKNYLTWYQQKPGQPPKLLIYWASTRESGVPDRFSGSGSGTDFTLTISSLQAEDVAVYYCQNDYSYPYTFGQGTKLEIKGGGSGGGGEVQLVESGGGLVQPGGSLRLSCAASGFTFSTYAMNWVRQAPGKGLEWVGRIRSKYNNYATYYADSVKDRFTISRDDSKNSLYLQMNSLKTEDTAVYYCVRHGNFGNSYVSWFAYWGQGTLVTVSSGGCGGGKVAALKEKVAALKEKVAALKEKVAALKE
